Patent US20100080812A1 (ROCHE PALO ALTO, published 2010)

Experiments:
[1] = biological target: recombinant human IL-17 (Peprotech #200-17) (human) (UniProt Q16552); assay: ELISA, coated IL-17 subtype, antibody 10 µg/ml, OD 405/492 nm
[2] = biological target: T1, human IL-17D (human, UniProt Q8TAD2 18-202, limits assumed); assay: as above
T1 sequence (looked up): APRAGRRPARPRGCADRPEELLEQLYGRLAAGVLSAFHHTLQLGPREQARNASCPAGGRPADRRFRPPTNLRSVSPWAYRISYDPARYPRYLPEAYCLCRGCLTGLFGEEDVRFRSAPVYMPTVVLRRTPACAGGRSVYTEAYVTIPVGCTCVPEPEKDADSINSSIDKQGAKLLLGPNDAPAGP

[3] = biological target: T2, human IL-17B (human, UniProt Q9UHF5 21-180, limits assumed); assay: as above
T2 sequence (looked up): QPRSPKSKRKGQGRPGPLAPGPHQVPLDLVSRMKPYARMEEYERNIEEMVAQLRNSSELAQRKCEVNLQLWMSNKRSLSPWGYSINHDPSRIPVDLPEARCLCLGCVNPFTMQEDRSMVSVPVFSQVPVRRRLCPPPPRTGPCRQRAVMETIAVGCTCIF

[4] = biological target: T3, human IL-17C (human, UniProt Q9P0M4 19-197, limits assumed); assay: as above
T3 sequence (looked up): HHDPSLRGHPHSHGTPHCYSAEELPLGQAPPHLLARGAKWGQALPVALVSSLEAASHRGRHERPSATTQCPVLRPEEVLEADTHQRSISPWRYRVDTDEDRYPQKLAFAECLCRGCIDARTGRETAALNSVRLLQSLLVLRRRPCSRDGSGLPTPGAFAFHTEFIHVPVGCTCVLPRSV

[5] = biological target: T4, human IL-17F (human, UniProt Q96PD4 31-163, limits assumed); assay: as above
T4 sequence (looked up): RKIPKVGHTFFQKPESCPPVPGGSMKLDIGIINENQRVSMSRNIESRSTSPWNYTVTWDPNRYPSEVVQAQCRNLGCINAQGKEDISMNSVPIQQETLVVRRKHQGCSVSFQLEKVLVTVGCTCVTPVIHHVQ

[6] = biological target: T5, human IL-17E (human, UniProt Q9H293 33-177, limits assumed); assay: as above
T5 sequence (looked up): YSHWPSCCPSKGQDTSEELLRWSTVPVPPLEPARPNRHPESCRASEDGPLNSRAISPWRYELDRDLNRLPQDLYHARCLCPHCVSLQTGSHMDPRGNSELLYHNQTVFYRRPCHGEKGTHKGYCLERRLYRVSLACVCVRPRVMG

[7] = biological target: recombinant human IL-17 (Peprotech #200-17) (human) (UniProt Q16552); assay: cell-based or functional assay
[8] = biological target: cynomolgus IL-17A (cynomolgus monkey); assay: cell-based or functional assay
[9] = biological target: T3, human IL-17C; assay: ELISA on immobilized IL-17 variant
[10] = biological target: T4, human IL-17F; assay: ELISA on immobilized IL-17 variant
[11] = biological target: T6, recombinant human IL-17 (Peprotech #200-17) (human, UniProt Q16552 20-155); assay: cell-based or functional assay
T6 sequence (looked up): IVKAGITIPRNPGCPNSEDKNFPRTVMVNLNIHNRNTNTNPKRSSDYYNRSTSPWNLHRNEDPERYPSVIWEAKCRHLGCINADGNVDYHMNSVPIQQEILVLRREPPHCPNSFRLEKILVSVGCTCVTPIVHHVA

[12] = biological target: T6, recombinant human IL-17 (Peprotech …); assay: ELISA, coated IL-17 subtype, antibody 10 µg/ml, OD 405/492 nm
[13] = biological target: T6, recombinant human IL-17 (Peprotech …); assay: cell-based or functional assay; remark: listed apart in the source
[14] = biological target: T7, cynomolgus IL-17A (cynomolgus monkey, UniProt A0A2K5TTB0 24-155); assay: cell-based or functional assay
T7 sequence: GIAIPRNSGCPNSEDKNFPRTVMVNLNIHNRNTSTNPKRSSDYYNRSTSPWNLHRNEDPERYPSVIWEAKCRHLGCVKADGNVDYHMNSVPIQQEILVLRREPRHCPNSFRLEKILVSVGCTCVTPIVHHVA

Work on MAB 317 of R&D Systems (antibody) yielded a Binding (IL-17A binding set as 100) (% (IL-17A binding set as 100)) [1] of 100, a Binding (IL-17A binding set as 100) (% (IL-17A binding set as 100)) [2] of 0 and a Binding (IL-17A binding set as 100) (% (IL-17A binding set as 100)) [3] of 0. The Binding (IL-17A binding set as 100) (% (IL-17A binding set as 100)) [4] was 0, the Binding (IL-17A binding set as 100) (% (IL-17A binding set as 100)) [5] was 0 and the Binding (IL-17A binding set as 100) (% (IL-17A binding set as 100)) [6] was 0. The IL-6 Neutralization IC50 [7] was 5.5 nM and the IL-8 Neutralization IC50 [7] was 5.5 nM.

In the case of “Mab 16-7178-85 of eBioscience (antibody)”, the Binding (IL-17A binding set as 100) (% (IL-17A binding set as 100)) [1] is reported as 100, the Binding (IL-17A binding set as 100) (% (IL-17A binding set as 100)) [2] is reported as 6 and the Binding (IL-17A binding set as 100) (% (IL-17A binding set as 100)) [3] is reported as 7. For the same molecule, the Binding (IL-17A binding set as 100) (% (IL-17A binding set as 100)) [4] was 97, the Binding (IL-17A binding set as 100) (% (IL-17A binding set as 100)) [5] was 5 and the Binding (IL-17A binding set as 100) (% (IL-17A binding set as 100)) [6] was 5.

Work on NVP-AIN-497 (WO 2006013107) (antibody) yielded a Binding (IL-17A binding set as 100) (% (IL-17A binding set as 100)) [1] of 100, a Binding (IL-17A binding set as 100) (% (IL-17A binding set as 100)) [2] of 0 and a Binding (IL-17A binding set as 100) (% (IL-17A binding set as 100)) [3] of 2. It also gave a Binding (IL-17A binding set as 100) (% (IL-17A binding set as 100)) [4] of 2, a Binding (IL-17A binding set as 100) (% (IL-17A binding set as 100)) [5] of 62 and a Binding (IL-17A binding set as 100) (% (IL-17A binding set as 100)) [6] of 3. For the same molecule, the IL-6 Neutralization IC50 (nM) (using 100 ng/ml IL-17A) [7] was 5 nM, the IL-8 Neutralization IC50 (nM) (using 100 ng/ml IL-17A) [7] was 4.2 nM and the IL-6 Neutralization IC50 (nM) (using 100 ng/ml IL-17A) [8] was greater than 10 nM. For the same molecule, the IL-8 Neutralization IC50 (nM) (using 100 ng/ml IL-17A) [8] was greater than 10 nM.

B1: Mab 106 (antibody, V domains shown)
VH: EVQLVESGGGLVQPGGSLRLSCAASGFTFSDYTMLWVRQAPGKGLEWVAIIKSGGSYSYYPDSVKGRFTISRDNAKNSLYLQMNSLRAEDTAVYYCARDGDYGSSYGAMDYWGQGTLVTVSS
VL: DIQMTQSPSSLSASVGDRVTITCRASQDINSYLSWFQQKPGKAPKSLIYRANRLVDGVPSRFSGSGSGQDYSLTISSLQPEDFATYYCLQYDAFPPYTFGQGTKLEIK
notes: Humanized version of 3C1; Only the variable domains are tied to it; also called Mab K106
With B1 the binding result [9] was “no binding (tested: S/N ratio lower than 7:1)”, the binding result [10] was “no binding (tested: S/N ratio lower than 7:1)” and the “IL-6 Neutralization IC50” value [11] was 1 nM. For the same molecule, the “IL-8 Neutralization IC50” value [11] was 1 nM, the “Binding (IL-17A binding set as 100)” value [2] was 0 % (IL-17A binding set as 100) and the “Binding (IL-17A binding set as 100)” value [3] was 0 % (IL-17A binding set as 100). For the same molecule, the “Binding (IL-17A binding set as 100)” value [4] was 0 % (IL-17A binding set as 100), the “Binding (IL-17A binding set as 100)” value [5] was 0 % (IL-17A binding set as 100) and the “Binding (IL-17A binding set as 100)” value [6] was 1 % (IL-17A binding set as 100). For the same molecule, the “Binding (IL-17A binding set as 100)” value [12] was 100 % (IL-17A binding set as 100), the “IL-6 Neutralization IC50 (nM) (using 100 ng/ml IL-17A)” value [13] was 2.1 nM and the “IL-8 Neutralization IC50 (nM) (using 100 ng/ml IL-17A)” value [13] was 1.6 nM. The “IL-6 Neutralization IC50 (nM) (using 100 ng/ml IL-17A)” value [14] was 0.7 nM and the “IL-8 Neutralization IC50 (nM) (using 100 ng/ml IL-17A)” value [14] was 0.6 nM.
